According to US20140274782A1, “AFFINITY REAGENTS AND METHODS FOR DETECTION, PURIFICATION, AND PROTEOMIC ANALYSIS OF METHYLATED PROTEINS” (The Board of Trustees of the Leland Stanford Junior …, priority 2013, published 2014):

B1: SRP72 (protein, UniProt O76094 2-671, looked up)
Signal recognition particle …: ASGGSGGVSVPALWSEVNRYGQNGDFTRALKTVNKILQINKDDVTALHCKVVCLIQNGSFKEALNVINTHTKVLANNSLSFEKAYCEYRLNRIENALKTIESANQQTDKLKELYGQVLYRLERYDECLAVYRDLVRNSQDDYDEERKTNLSAVVAAQSNWEKVVPENLGLQEGTHELCYNTACALIGQGQLNQAMKILQKAEDLCRRSLSEDTDGTEEDPQAELAIIHGQMAYILQLQGRTEEALQLYNQIIKLKPTDVGLLAVIANNIITINKDQNVFDSKKKVKLTNAEGVEFKLSKKQLQAIEFNKALLAMYTNQAEQCRKISASLQSQSPEHLLPVLIQAAQLCREKQHTKAIELLQEFSDQHPENAAEIKLTMAQLKISQGNISKACLILRSIEELKHKPGMVSALVTMYSHEEDIDSAIEVFTQAIQWYQNHQPKSPAHLSLIREAANFKLKYGRKKEAISDLQQLWKQNPKDIHTLAQLISAYSLVDPEKAKALSKHLPSSDSMSLKVDVEALENSAGATYIRKKGGKVTGDSQPKEQGQGDLKKKKKKKKGKLPKNYDPKVTPDPERWLPMRERSYYRGRKKGKKKDQIGKGTQGATAGASSELDASKTVSSPPTSPRPGSAATVSASTSNIIPPRHQKPAGAPATKKKQQQKKKKGGKGGW
B2: HNRNPR (protein, UniProt O43390 2-633, looked up)
Heterogeneous nuclear …: ANQVNGNAVQLKEEEEPMDTSSVTHTEHYKTLIEAGLPQKVAERLDEIFQTGLVAYVDLDERAIDALREFNEEGALSVLQQFKESDLSHVQNKSAFLCGVMKTYRQREKQGSKVQESTKGPDEAKIKALLERTGYTLDVTTGQRKYGGPPPDSVYSGVQPGIGTEVFVGKIPRDLYEDELVPLFEKAGPIWDLRLMMDPLSGQNRGYAFITFCGKEAAQEAVKLCDSYEIRPGKHLGVCISVANNRLFVGSIPKNKTKENILEEFSKVTEGLVDVILYHQPDDKKKNRGFCFLEYEDHKSAAQARRRLMSGKVKVWGNVVTVEWADPVEEPDPEVMAKVKVLFVRNLATTVTEEILEKSFSEFGKLERVKKLKDYAFVHFEDRGAAVKAMDEMNGKEIEGEEIEIVLAKPPDKKRKERQAARQASRSTAYEDYYYHPPPRMPPPIRGRGRGGGRGGYGYPPDYYGYEDYYDDYYGYDYHDYRGGYEDPYYGYDDGYAVRGRGGGRGGRGAPPPPRGRGAPPPRGRAGYSQRGAPLGPPRGSRGGRGGPAQQQRGRGSRGSRGNRGGNVGGKRKADGYNQPDSKRRQTNNQQNWGSQPIAQQPLQQGGDYSGNYGYNNDNQEFYQDTYGQQWK
B3: CPSF2 (protein, UniProt Q9P2I0 1-782, looked up)
Cleavage and polyadenylation …: MTSIIKLTTLSGVQEESALCYLLQVDEFRFLLDCGWDEHFSMDIIDSLRKHVHQIDAVLLSHPDPLHLGALPYAVGKLGLNCAIYATIPVYKMGQMFMYDLYQSRHNTEDFTLFTLDDVDAAFDKIQQLKFSQIVNLKGKGHGLSITPLPAGHMIGGTIWKIVKDGEEEIVYAVDFNHKREIHLNGCSLEMLSRPSLLITDSFNATYVQPRRKQRDEQLLTNVLETLRGDGNVLIAVDTAGRVLELAQLLDQIWRTKDAGLGVYSLALLNNVSYNVVEFSKSQVEWMSDKLMRCFEDKRNNPFQFRHLSLCHGLSDLARVPSPKVVLASQPDLECGFSRDLFIQWCQDPKNSIILTYRTTPGTLARFLIDNPSEKITEIELRKRVKLEGKELEEYLEKEKLKKEAAKKLEQSKEADIDSSDESDIEEDIDQPSAHKTKHDLMMKGEGSRKGSFFKQAKKSYPMFPAPEERIKWDEYGEIIKPEDFLVPELQATEEEKSKLESGLTNGDEPMDQDLSDVPTKCISTTESIEIKARVTYIDYEGRSDGDSIKKIINQMKPRQLIIVHGPPEASQDLAECCRAFGGKDIKVYMPKLHETVDATSETHIYQVRLKDSLVSSLQFCKAKDAELAWIDGVLDMRVSKVDTGVILEEGELKDDGEDSEMQVEAPSDSSVIAQQKAMKSLFGDDEKETGEESEIIPTLEPLPPHEVPGHQSVFMNEPRLSDFKQVLLREGIQAEFVGGVLVCNNQVAVRRTETGRIGLEGCLCQDFYRIRDLLYEQYAIV
B4: CPSF3 (protein, UniProt Q9UKF6 2-684, looked up)
Cleavage and polyadenylation …: SAIPAEESDQLLIRPLGAGQEVGRSCIILEFKGRKIMLDCGIHPGLEGMDALPYIDLIDPAEIDLLLISHFHLDHCGALPWFLQKTSFKGRTFMTHATKAIYRWLLSDYVKVSNISADDMLYTETDLEESMDKIETINFHEVKEVAGIKFWCYHAGHVLGAAMFMIEIAGVKLLYTGDFSRQEDRHLMAAEIPNIKPDILIIESTYGTHIHEKREEREARFCNTVHDIVNRGGRGLIPVFALGRAQELLLILDEYWQNHPELHDIPIYYASSLAKKCMAVYQTYVNAMNDKIRKQININNPFVFKHISNLKSMDHFDDIGPSVVMASPGMMQSGLSRELFESWCTDKRNGVIIAGYCVEGTLAKHIMSEPEEITTMSGQKLPLKMSVDYISFSAHTDYQQTSEFIRALKPPHVILVHGEQNEMARLKAALIREYEDNDEVHIEVHNPRNTEAVTLNFRGEKLAKVMGFLADKKPEQGQRVSGILVKRNFNYHILSPCDLSNYTDLAMSTVKQTQAIPYTGPFNLLCYQLQKLTGDVEELEIQEKPALKVFKNITVIQEPGMVVLEWLANPSNDMYADTVTTVILEVQSNPKIRKGAVQKVSKKLEMHVYSKRLEIMLQDIFGEDCVSVKDDSILSVTVDGKTANLNLETRTVECEEGSEDDESLREMVELAAQRLYEALTPVH

system: 3×MBT domain of L3MBTL1; test: Triple SILAC pull-down, 3xMBT/3xMBTD355N ratio (cytoplasmic, nuclear and chromatin fractions of 293T cells); assay type: binding, human; conditions: SILAC ratio, pull-down 3xMBT vs 3xMBTD355N; experiment with UNC0638 in heavy SILAC media;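 also: proteins quantified with MaxQuant, requiring at least two unique peptides and quantification in both label directions, normalized to the mean of proteins from a digested loading control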

Molecule	3xMBT/D355N UNC Heavy
B1	1.68 log base 2
B2	3.20 log base 2
B3	1.85 log base 2
B4	3.39 log base 2

same assay, conditions: SILAC ratio, pull-down 3xMBT vs 3xMBTD355N; experiment with UNC0638 in light SILAC media

Molecule	3xMBT/D355N UNC Light
B1	2.90 log base 2
B2	3.60 log base 2
B3	4.20 log base 2
B4	0.51 log base 2

target: T1, G9a and GLP (Homo sapiens, UniProt Q96KQ7+Q9H9B1); test: Triple SILAC pull-down after UNC0638 treatment of 293T cells, DMSO/UNC0638 ratio of protein captured by 3×MBT; assay type: cell-based; parameters: endogenous in cells; host or cells: HEK 293T; conditions: SILAC ratio DMSO/UNC0638 of protein pulled down with 3xMBT; UNC0638 in heavy SILAC media;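 also: mass spectrometry (Q-Exactive) SILAC quantitation, DMSO/UNC0638 ratio computed after subtracting 3×MBTD355N mutant pull-down background, only proteins with at least twofold 3×MBT over mutant signal considered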
T1 sequence (Q96KQ7 2-1210 limits assumed): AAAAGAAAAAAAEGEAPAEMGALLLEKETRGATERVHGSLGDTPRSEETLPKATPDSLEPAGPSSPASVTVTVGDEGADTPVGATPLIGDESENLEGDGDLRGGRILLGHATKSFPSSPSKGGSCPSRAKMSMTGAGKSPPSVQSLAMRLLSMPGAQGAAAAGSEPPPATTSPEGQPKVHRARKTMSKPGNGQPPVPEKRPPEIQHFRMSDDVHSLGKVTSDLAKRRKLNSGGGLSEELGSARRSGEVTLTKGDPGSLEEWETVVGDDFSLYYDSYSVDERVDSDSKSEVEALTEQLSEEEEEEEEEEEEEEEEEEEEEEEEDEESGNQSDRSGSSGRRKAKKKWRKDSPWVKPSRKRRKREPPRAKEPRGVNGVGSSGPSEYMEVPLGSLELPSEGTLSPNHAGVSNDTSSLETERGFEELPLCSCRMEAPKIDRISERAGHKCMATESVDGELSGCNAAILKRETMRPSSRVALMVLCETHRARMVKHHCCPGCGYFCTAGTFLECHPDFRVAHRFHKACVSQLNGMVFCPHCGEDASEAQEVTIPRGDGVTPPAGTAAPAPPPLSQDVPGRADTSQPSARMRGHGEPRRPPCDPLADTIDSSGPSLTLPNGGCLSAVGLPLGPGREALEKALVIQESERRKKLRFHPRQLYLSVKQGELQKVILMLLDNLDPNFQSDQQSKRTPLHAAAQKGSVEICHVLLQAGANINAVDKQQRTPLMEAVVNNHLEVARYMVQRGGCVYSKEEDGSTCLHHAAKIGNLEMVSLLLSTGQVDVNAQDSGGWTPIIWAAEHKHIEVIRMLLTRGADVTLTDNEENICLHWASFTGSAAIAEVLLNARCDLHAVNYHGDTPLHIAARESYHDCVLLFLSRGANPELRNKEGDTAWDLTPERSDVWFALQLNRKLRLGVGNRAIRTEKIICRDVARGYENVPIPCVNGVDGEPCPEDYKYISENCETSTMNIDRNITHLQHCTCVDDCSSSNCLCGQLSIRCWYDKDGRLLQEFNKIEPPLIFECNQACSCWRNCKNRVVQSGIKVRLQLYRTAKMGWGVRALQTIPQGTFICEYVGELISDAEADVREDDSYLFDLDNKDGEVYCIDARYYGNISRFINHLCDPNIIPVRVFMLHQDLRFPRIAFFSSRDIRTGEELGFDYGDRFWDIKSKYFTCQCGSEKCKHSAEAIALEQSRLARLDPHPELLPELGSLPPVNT
T1 sequence (Q9H9B1 2-1298 limits assumed): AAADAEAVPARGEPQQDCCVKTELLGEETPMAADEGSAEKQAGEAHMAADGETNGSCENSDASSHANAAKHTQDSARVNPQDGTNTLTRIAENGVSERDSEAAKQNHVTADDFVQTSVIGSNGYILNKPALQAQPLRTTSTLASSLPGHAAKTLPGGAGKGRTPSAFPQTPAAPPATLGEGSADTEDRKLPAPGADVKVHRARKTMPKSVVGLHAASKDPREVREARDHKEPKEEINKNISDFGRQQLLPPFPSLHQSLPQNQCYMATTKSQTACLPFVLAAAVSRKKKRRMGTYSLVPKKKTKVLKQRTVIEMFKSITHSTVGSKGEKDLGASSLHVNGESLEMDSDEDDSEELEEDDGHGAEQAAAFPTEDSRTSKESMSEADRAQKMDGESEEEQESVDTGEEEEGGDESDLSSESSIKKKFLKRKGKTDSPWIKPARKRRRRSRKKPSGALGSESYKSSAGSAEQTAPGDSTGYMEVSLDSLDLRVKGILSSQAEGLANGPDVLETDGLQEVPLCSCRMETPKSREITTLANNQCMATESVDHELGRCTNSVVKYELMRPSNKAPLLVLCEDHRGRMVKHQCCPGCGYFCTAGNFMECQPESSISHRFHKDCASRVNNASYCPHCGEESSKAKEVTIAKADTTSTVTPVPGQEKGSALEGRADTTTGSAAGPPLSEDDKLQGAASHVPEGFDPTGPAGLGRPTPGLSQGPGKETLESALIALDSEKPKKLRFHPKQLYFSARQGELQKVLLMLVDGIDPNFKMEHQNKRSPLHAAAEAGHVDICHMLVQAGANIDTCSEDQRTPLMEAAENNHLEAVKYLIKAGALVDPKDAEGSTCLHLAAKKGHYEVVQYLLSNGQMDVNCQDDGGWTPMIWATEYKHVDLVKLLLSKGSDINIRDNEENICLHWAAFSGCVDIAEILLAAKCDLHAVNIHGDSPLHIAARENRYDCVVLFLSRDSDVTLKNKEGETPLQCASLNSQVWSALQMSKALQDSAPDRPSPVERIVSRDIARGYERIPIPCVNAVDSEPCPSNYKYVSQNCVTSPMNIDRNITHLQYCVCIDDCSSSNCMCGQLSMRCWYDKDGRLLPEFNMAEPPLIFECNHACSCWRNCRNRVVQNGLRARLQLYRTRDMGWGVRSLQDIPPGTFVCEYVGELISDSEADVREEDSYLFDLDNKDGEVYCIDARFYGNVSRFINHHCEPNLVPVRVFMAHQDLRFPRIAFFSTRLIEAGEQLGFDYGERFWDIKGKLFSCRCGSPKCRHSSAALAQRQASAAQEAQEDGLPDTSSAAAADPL

Molecule	Relative to UNC0638 UNC Heavy
B1	0.27 log base 2
B2	0.12 log base 2
B3	0.15 log base 2
B4	0.30 log base 2

same assay, conditions: SILAC ratio DMSO/UNC0638 of protein pulled down with 3xMBT; UNC0638 in light SILAC media

Molecule	Relative to UNC0638 UNC Light
B1	0.10 log base 2
B2	0.24 log base 2
B3	3.16 log base 2
B4	0.06 log base 2

same assay, conditions: average of UNC Light and UNC Heavy experiments

Molecule	Relative to UNC0638 Average
B1	0.19 log base 2
B2	0.18 log base 2
B3	1.65 log base 2
B4	0.18 log base 2

same assay, conditions: reduced association with 3xMBT after UNC0638 treatment

Molecule	Candidate G9a/GLP target
B3	✓
